For orientation: % inhibition means the share of the control response that was lost under treatment. A lower % inhibition goes with a response near the control.

This is an account of results in US6613536B1, “Synthetic peptides and pharmaceutical compositions comprising them for the treatment of systemic lupus erythematosus” (Yeda Research and Development Co. Ltd., priority 1995, dated 2003).

Assay [1] addresses MHC class II products (H-2s) on splenic antigen-presenting cells of SJL mice (mouse). In words: flow cytometry, inhibition of binding of biotinylated peptide Ia (competitor) to SJL APC. Background: A flow cytometer gives signals particle by particle.
Assay [2] has the same target. As to the kind of experiment: flow cytometry, inhibition of binding of biotinylated peptide IIIa (competitor) to SJL APC.
The test system of assay [3] is antibodies in sera of SLE patients and healthy controls. In words: Antibodies in human sera binding coated peptides or mAb 5G12 (ELISA). To be noted: 32 SLE patients in comparison to healthy controls; plates coated 10 μg/ml. How it is done:
Human SLE patients (32 patients) were bled and their sera were tested by ELISA for their ability to bind the peptides Ia, IIa and IIIa, a control peptide p195-212 (a myasthogenic peptide described in PCT publication No. WO 94/00148) or mAb 5G12.
Detection of the antibodies was conducted on plates that were coated with 10 μg/ml of peptides Ia, IIa, IIIa or p195-212 or mAb 5G12, in PBS for 2 hr, washed and blocked with 1% ovalbumin in PBS for an additional 2 hr. ELISA was continued as described after blockage in Example 2 above, using goat anti-human IgG polyclonal antibody conjugated to peroxidase.
A general note: In an ELISA, binding on a coated surface is turned into a signal by an enzyme label.

For assay [4], the system named is peripheral blood lymphocytes (PBL). As to the kind of experiment: IL-2 production by PBL of SLE patients and healthy controls. Type of assay: cell-based, human. To be noted: sample at 24 hr. How it is done: (§1) PBL from human SLE patients and of the appropriate control donors (2×10^5/well) were cultured in microtiter plates in enriched medium containing 10% pooled AB sera in the presence of the human or mouse monoclonal 16/6 Id antibody, in the presence of peptides of the invention or in the presence of phytohemagglutinin (PHA). The rate of proliferation was evaluated by the incorporation of ^3[H]-thymidine in the cell culture. Non-relevant peptides were used as specificity controls. Antigen and mitogen-stimulated cytokine production was quantitated in the supernatants of the above cultures using either the cytokine-dependent lines or the appropriate pairs of antibodies in ELISA assays. Inhibition of the proliferative responses was performed in vitro by adding increasing doses of the tested peptide analogs into the proliferative culture mixtures.
PBL were isolated from blood of SLE patients or healthy controls using ficol gradient, and were incubated as in Example 13. A sample of 50 μl was removed 24 hr after the assay was started, and incubated in the presence of IL-2 sensitive cells (CTLD) for 24 hr, after which ^3H-thymidine was added for 16 hr, and the plates were harvested and counted on a beta counter.

In another assay the test system is BALB/c and SJL mice. As to the kind of experiment: Clinical manifestations of SLE in immunized mice (WBC, proteinuria, kidney analysis). It is filed as in vivo, mouse. How it is done: The erythrocyte sedimentation rate was determined by diluting the heparinized blood in PBS at a ratio of 1:1. The diluted blood was then passed to a microsampling pipette and the sedimentation was measured 6 hours later. White blood cell counts were determined after the hemolysis of heparinized blood. Proteinuria was measured in a semi-quantitative manner, using a Combistix kit (Ames, Stoke Poges, Slough, U.K.). Immunohistology was performed by incubation of fixed frozen cryostat sections with FITC-labeled antibodies to mouse Ig. Staining was visualized via use of a fluorescent microscope.
BALBtc and SJL mice were immunized with mAb 5G12 or with peptides Ia and IIIa, and five months later were checked by two criteria for manifestation of SLE: white blood cell count (WBC) and proteinuria.
(i) White blood cell count (WBC): The mice were bled, their blood was diluted 1:10 with 1% (vol/vol) acetic acid in order to eliminate the red blood cells, and white blood cells were counted under a normal light microscope.
Proteinuria: The urine of the mice was tested using combisticks (Combistix Kit, Ames) for the presence of protein.

The test system of assay [5] is peripheral blood lymphocytes (PBL). In words: Proliferation of PBL from SLE patients and healthy controls. Type of assay: cell-based, human. Here is the method: as §1
Peripheral blood lymphocytes (PBL) were isolated from the blood of SLE patients or healthy controls using ficol gradient. Thereafter, the PBL were incubated in the presence of different concentrations of the peptides Ia, IIa or IIIa, or the human 16/6 Id mAb for 24 hr, when a sample was taken for IL-2 measurement. The assay was continued for a total of 7 days, and ^3H-thymidine was added for the last 16 hr. Proliferation was detected by reading the amount of radioactivity incorporated into the DNA of the cells.

Assay [6] has as its target MHC class II products (H-2d) on splenic antigen-presenting cells of BALB/c mice (mouse) (UniProt P04228). In words: flow cytometry, inhibition of binding of biotinylated peptide IIIa (competitor) to BALB/c APC.
In assay [7] the target is MHC class II products (H-2b) on splenic antigen-presenting cells of C57BL/6 mice (mouse) (UniProt P14434). In words: flow cytometry, inhibition of binding of biotinylated peptide Ia (competitor) to C57BL/6 APC.
The target is the same in assay [8]. As to the kind of experiment: flow cytometry, inhibition of binding of biotinylated peptide IIIa (competitor) to C57BL/6 APC.
For assay [9], the target named is MHC class II products (H-2b) on splenic antigen-presenting cells of C3H.SW mice (mouse) (UniProt P14434). In words: flow cytometry, inhibition of binding of biotinylated peptide IIIa (competitor) to C3H.SW APC.
For assay [10], the target named is MHC class II products (H-2d) on splenic antigen-presenting cells of BALB/c mice (mouse) (UniProt P04228). As to the kind of experiment: flow cytometry, inhibition of binding of biotinylated peptide Ia (competitor) to BALB/c APC.
The target of assay [11] is MHC class II products (H-2b) on splenic antigen-presenting cells of C3H.SW mice (mouse) (UniProt P14434). In words: flow cytometry, inhibition of binding of biotinylated peptide Ia (competitor) to C3H.SW APC.

Turning to “10.3.6.2 (anti-I-A^s (Zamvil et al., 1988)) (antibody)”, the % inhibition was 100% in assay [1] and 92.8% in assay [2].
As to “EINPSTGGTTYNQKFKAKAT (EINPSTGGTTYNQKFKAKAT) [peptide IIa, based on the CDR2 region of the VH chain of mAb 5G12]”, the “levels of serum antibodies that bind the coated peptide or mAb” value in assay [3] is “significantly higher levels of antibodies”. Also, the “IL-2 production by PBL, actual number of responders” value in assay [4] (SLE patients) is given as 3/32; in assay [4] (healthy controls), 8/25. The “IL-2 production by PBL, percentage of responders” value in [4] (SLE patients) was 9%; in assay [4] (healthy controls), 32%. Further, the “protein level in urine (in words)” value with BALB/c and SJL mice (BALB/c mice) was “smaller increase in protein level”; in the assay with BALB/c and SJL mice (SJL mice), “High levels of protein”. The “proliferation of PBL, actual number of responders” value in [5] (SLE patients) is recorded as 3/32; in assay [5] (healthy controls) it was 7/25. Besides, the “proliferation of PBL, percentage of responders” value in [5] (SLE patients) is given as 9%; in assay [5] (healthy controls) it was 28%.
For “MKD6 (anti-I-A^d, Beckton-Dickinson) (antibody)”, the % inhibition in assay [6] turned out to be 100%; in [7], 0%; in [1], 0%; in assay [8], 0%; in [9], 25%; in [2] it was 0%. For the same substance, the % inhibition in assay [10] stood at 76.7%; in assay [11], 0%.
In the case of “34-5-3 (anti-I-A^b, Pharmingen) (antibody)”, the % inhibition in [6] turned out to be 0%; in assay [7], 82%; in assay [8] it was 59.3%; in [9] it was 84.4%; in assay [10], 0%; in assay [11] it was 60%.
